Source: PMC2561144 (Journal of Experimental Botany, 2008)

T1: MYA2 tail 1, aa1049-aa1505, fused with GST (Arabidopsis thaliana, UniProt Q9LKB9 1049-1505)
T1 sequence: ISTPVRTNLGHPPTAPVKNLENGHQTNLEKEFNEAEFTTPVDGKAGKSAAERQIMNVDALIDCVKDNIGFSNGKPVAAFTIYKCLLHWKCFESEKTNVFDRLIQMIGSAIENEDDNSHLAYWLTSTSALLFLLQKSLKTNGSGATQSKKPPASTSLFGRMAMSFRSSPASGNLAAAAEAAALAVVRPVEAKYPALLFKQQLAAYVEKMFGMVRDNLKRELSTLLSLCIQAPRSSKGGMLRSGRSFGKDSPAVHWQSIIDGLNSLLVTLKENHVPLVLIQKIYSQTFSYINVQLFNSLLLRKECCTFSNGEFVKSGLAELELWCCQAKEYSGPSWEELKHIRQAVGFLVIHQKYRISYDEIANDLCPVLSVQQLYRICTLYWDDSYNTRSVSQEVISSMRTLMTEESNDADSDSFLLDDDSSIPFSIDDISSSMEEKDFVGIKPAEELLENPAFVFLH

T2: MYA2 tail 2, aa1049-aa1450, fused with GST (Arabidopsis thaliana, UniProt Q9LKB9 1049-1450)
T2 sequence: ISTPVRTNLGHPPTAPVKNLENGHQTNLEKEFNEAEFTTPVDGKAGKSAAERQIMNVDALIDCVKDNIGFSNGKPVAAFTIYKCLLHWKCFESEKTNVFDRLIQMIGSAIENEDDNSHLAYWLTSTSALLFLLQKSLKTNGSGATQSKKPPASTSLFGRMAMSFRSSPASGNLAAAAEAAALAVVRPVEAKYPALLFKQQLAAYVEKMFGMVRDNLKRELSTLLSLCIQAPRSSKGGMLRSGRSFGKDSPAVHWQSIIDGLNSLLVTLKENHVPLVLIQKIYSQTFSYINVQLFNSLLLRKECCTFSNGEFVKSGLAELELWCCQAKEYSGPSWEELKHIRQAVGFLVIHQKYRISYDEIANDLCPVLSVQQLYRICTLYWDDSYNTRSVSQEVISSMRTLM

B1: His6-AtRabC2a (natural protein)
chain: MGSSSGQSGYDLSFKILLIGDSGVGKSSLLVSFISSSVEDLAPTIGVDFKIKQLTVGGKRLKLTIWDTAGQERFRTLTSSYYRGAQGIILVYDVTRRETFTNLVDVWGKEIELYSTNQECVRMLVGNKVDRESERGVSREEGIALAKELNCMFLECSARTRQNVEQCFEELALKIMEVPSLLEEGSSAVKRNILKQKPEHQTNTQSGCCS
B2: His6-AtRabD1 (natural protein)
chain: not shown

How the values were obtained:
[1] = molecular target: T1, MYA2 tail 1, aa1049-aa1505, fused with …; test: pull-down
[2] = molecular target: T2, MYA2 tail 2, aa1049-aa1450, fused with …; test: pull-down

Row | Binder | fold amount bound with GTP over that without GTP or on control beads [1] [fold] | fold amount bound with GTP over that without GTP or on control beads [2] [fold]
1 | B1 | 1.7 | –
2 | B2 | 2.6 | 1.6
